PMC11878792, “Structural basis for aminoacylation of cellular modified tRNA^Lys3 by human lysyl-tRNA synthetase” (Nucleic Acids Research, 2025)

Target: T1, human lysyl-tRNA synthetase (h-LysRS), wild type, full length (human, UniProt Q15046 1-597)
T1 construct: Human lysyl-tRNA synthetase (LysRS), full length, wild type; printed residue numbers (NTD 1-65, S207, linker 208-220) fit the cytosolic form; Dimer in the cryo-EM reconstructions; No removal of the His tag is described; also called wt LysRS; wt h-LysRS; source: E. coli BL21 (DE3), purified (PEI and ammonium sulfate precipitation, Ni-NTA, hydroxyapatite)
T1 sequence (Q15046 whole entry): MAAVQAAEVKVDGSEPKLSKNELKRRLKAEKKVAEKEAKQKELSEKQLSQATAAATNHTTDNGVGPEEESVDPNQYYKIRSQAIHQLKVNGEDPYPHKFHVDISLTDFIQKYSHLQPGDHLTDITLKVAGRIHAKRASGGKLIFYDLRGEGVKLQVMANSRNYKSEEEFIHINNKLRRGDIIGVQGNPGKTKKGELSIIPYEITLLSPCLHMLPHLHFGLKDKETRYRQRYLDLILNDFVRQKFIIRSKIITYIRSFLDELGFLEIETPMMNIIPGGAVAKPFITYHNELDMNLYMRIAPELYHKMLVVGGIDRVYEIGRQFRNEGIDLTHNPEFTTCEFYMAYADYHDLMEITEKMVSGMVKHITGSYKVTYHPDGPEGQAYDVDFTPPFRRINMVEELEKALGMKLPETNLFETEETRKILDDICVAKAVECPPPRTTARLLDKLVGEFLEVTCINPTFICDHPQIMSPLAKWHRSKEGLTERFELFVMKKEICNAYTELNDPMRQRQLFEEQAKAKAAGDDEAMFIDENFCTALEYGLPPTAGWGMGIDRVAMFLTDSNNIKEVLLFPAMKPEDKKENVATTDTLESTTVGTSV
Assay: cryo-EM structure; 10 uM h-LysRS-tRNALys3 (cellular modified, 1:1), 100 uM AIMP2-N36, 2.5 mM L-lysine, 2 mM AMP; complex formed 60 min at 4°C; 0.075% CHAPSO added before freezing
Settings: both partners purified

stoichiometry N: 2 copies per LysRS dimer
B1: AIMP2-N36 peptide (LysRS interacting N-terminal region of AIMP2) (peptide)
peptide: MPMYQVKPYHGGGAPLRVELPTCMYRLPNVHGRSYG
notes: also called AIMP2 peptide; p38; source: synthetic peptide, bought: Biosynth
